Square brackets hold non-standard residues; d marks the D form. Aib = CC(C)(N)C(=O)O
T1: human GIP receptor (human, UniProt P48546 22-466)
T1 sequence (looked up): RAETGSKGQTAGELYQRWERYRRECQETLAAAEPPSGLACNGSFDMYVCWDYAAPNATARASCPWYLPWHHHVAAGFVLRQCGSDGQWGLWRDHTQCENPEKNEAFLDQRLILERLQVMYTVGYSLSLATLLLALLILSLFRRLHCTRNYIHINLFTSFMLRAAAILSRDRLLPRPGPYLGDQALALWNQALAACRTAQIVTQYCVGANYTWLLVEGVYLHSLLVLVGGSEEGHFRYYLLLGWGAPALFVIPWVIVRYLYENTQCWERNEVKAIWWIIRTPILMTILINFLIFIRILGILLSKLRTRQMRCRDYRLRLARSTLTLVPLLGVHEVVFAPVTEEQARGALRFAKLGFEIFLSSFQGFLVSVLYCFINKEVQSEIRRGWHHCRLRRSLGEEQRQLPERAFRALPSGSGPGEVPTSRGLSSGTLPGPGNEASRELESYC

B1: Compound 18 (peptide)
peptide: H-Y[Aib]EGTFTSDYSIYLDSKAKRAFVNWLLA[Aib]K-NH2
SMILES: CC[C@H](C)[C@H](NC(=O)[C@H](CO)NC(=O)[C@H](Cc1ccc(O)cc1)NC(=O)[C@H](CC(=O)O)NC(=O)[C@H](CO)NC(=O)[C@@H](NC(=O)[C@H](Cc1ccccc1)NC(=O)[C@@H](NC(=O)CNC(=O)[C@H](CCC(=O)O)NC(=O)C(C)(C)NC(=O)[C@@H](N)Cc1ccc(O)cc1)[C@@H](C)O)[C@@H](C)O)C(=O)N[C@@H](Cc1ccc(O)cc1)C(=O)N[C@@H](CC(C)C)C(=O)N[C@@H](CC(=O)O)C(=O)N[C@@H](CO)C(=O)N[C@@H](CCCCN)C(=O)N[C@@H](C)C(=O)N[C@@H](CCCCN)C(=O)N[C@@H](CCCNC(=N)N)C(=O)N[C@@H](C)C(=O)N[C@@H](Cc1ccccc1)C(=O)N[C@H](C(=O)N[C@@H](CC(N)=O)C(=O)N[C@@H](Cc1c[nH]c2ccccc12)C(=O)N[C@@H](CC(C)C)C(=O)N[C@@H](CC(C)C)C(=O)N[C@@H](C)C(=O)NC(C)(C)C(=O)N[C@@H](CCCCN)C(N)=O)C(C)C
B2: Compound 2 (peptide)
peptide: H-Y[Aib]EGTFTSDYSI[Aib]LDKKAQRAFVEWLLAQGPSSGAPPPS-NH2
SMILES: CC[C@H](C)[C@H](NC(=O)[C@H](CO)NC(=O)[C@H](Cc1ccc(O)cc1)NC(=O)[C@H](CC(=O)O)NC(=O)[C@H](CO)NC(=O)[C@@H](NC(=O)[C@H](Cc1ccccc1)NC(=O)[C@@H](NC(=O)CNC(=O)[C@H](CCC(=O)O)NC(=O)C(C)(C)NC(=O)[C@@H](N)Cc1ccc(O)cc1)[C@@H](C)O)[C@@H](C)O)C(=O)NC(C)(C)C(=O)N[C@@H](CC(C)C)C(=O)N[C@@H](CC(=O)O)C(=O)N[C@@H](CCCCN)C(=O)N[C@@H](CCCCN)C(=O)N[C@@H](C)C(=O)N[C@@H](CCC(N)=O)C(=O)N[C@@H](CCCNC(=N)N)C(=O)N[C@@H](C)C(=O)N[C@@H](Cc1ccccc1)C(=O)N[C@H](C(=O)N[C@@H](CCC(=O)O)C(=O)N[C@@H](Cc1c[nH]c2ccccc12)C(=O)N[C@@H](CC(C)C)C(=O)N[C@@H](CC(C)C)C(=O)N[C@@H](C)C(=O)N[C@@H](CCC(N)=O)C(=O)NCC(=O)N1CCC[C@H]1C(=O)N[C@@H](CO)C(=O)N[C@@H](CO)C(=O)NCC(=O)N[C@@H](C)C(=O)N1CCC[C@H]1C(=O)N1CCC[C@H]1C(=O)N1CCC[C@H]1C(=O)N[C@@H](CO)C(N)=O)C(C)C
B3: Compound 15 (peptide)
peptide: H-Y[Aib]EGTFTSDYSIALEKKAQRAFVNWLLA[Aib]K-NH2
SMILES: CC[C@H](C)[C@H](NC(=O)[C@H](CO)NC(=O)[C@H](Cc1ccc(O)cc1)NC(=O)[C@H](CC(=O)O)NC(=O)[C@H](CO)NC(=O)[C@@H](NC(=O)[C@H](Cc1ccccc1)NC(=O)[C@@H](NC(=O)CNC(=O)[C@H](CCC(=O)O)NC(=O)C(C)(C)NC(=O)[C@@H](N)Cc1ccc(O)cc1)[C@@H](C)O)[C@@H](C)O)C(=O)N[C@@H](C)C(=O)N[C@@H](CC(C)C)C(=O)N[C@@H](CCC(=O)O)C(=O)N[C@@H](CCCCN)C(=O)N[C@@H](CCCCN)C(=O)N[C@@H](C)C(=O)N[C@@H](CCC(N)=O)C(=O)N[C@@H](CCCNC(=N)N)C(=O)N[C@@H](C)C(=O)N[C@@H](Cc1ccccc1)C(=O)N[C@H](C(=O)N[C@@H](CC(N)=O)C(=O)N[C@@H](Cc1c[nH]c2ccccc12)C(=O)N[C@@H](CC(C)C)C(=O)N[C@@H](CC(C)C)C(=O)N[C@@H](C)C(=O)NC(C)(C)C(=O)N[C@@H](CCCCN)C(N)=O)C(C)C
B4: Compound 14 (peptide)
peptide: H-Y[Aib]EGTFTSDYSIYLEKKAQRAFVNWLLA[Aib]K-NH2
SMILES: CC[C@H](C)[C@H](NC(=O)[C@H](CO)NC(=O)[C@H](Cc1ccc(O)cc1)NC(=O)[C@H](CC(=O)O)NC(=O)[C@H](CO)NC(=O)[C@@H](NC(=O)[C@H](Cc1ccccc1)NC(=O)[C@@H](NC(=O)CNC(=O)[C@H](CCC(=O)O)NC(=O)C(C)(C)NC(=O)[C@@H](N)Cc1ccc(O)cc1)[C@@H](C)O)[C@@H](C)O)C(=O)N[C@@H](Cc1ccc(O)cc1)C(=O)N[C@@H](CC(C)C)C(=O)N[C@@H](CCC(=O)O)C(=O)N[C@@H](CCCCN)C(=O)N[C@@H](CCCCN)C(=O)N[C@@H](C)C(=O)N[C@@H](CCC(N)=O)C(=O)N[C@@H](CCCNC(=N)N)C(=O)N[C@@H](C)C(=O)N[C@@H](Cc1ccccc1)C(=O)N[C@H](C(=O)N[C@@H](CC(N)=O)C(=O)N[C@@H](Cc1c[nH]c2ccccc12)C(=O)N[C@@H](CC(C)C)C(=O)N[C@@H](CC(C)C)C(=O)N[C@@H](C)C(=O)NC(C)(C)C(=O)N[C@@H](CCCCN)C(N)=O)C(C)C
B5: Compound 16 (peptide)
peptide: H-Y[Aib]EGTFTSDYSIYLDSKAQRAFVNWLLA[Aib]K-NH2
SMILES: CC[C@H](C)[C@H](NC(=O)[C@H](CO)NC(=O)[C@H](Cc1ccc(O)cc1)NC(=O)[C@H](CC(=O)O)NC(=O)[C@H](CO)NC(=O)[C@@H](NC(=O)[C@H](Cc1ccccc1)NC(=O)[C@@H](NC(=O)CNC(=O)[C@H](CCC(=O)O)NC(=O)C(C)(C)NC(=O)[C@@H](N)Cc1ccc(O)cc1)[C@@H](C)O)[C@@H](C)O)C(=O)N[C@@H](Cc1ccc(O)cc1)C(=O)N[C@@H](CC(C)C)C(=O)N[C@@H](CC(=O)O)C(=O)N[C@@H](CO)C(=O)N[C@@H](CCCCN)C(=O)N[C@@H](C)C(=O)N[C@@H](CCC(N)=O)C(=O)N[C@@H](CCCNC(=N)N)C(=O)N[C@@H](C)C(=O)N[C@@H](Cc1ccccc1)C(=O)N[C@H](C(=O)N[C@@H](CC(N)=O)C(=O)N[C@@H](Cc1c[nH]c2ccccc12)C(=O)N[C@@H](CC(C)C)C(=O)N[C@@H](CC(C)C)C(=O)N[C@@H](C)C(=O)NC(C)(C)C(=O)N[C@@H](CCCCN)C(N)=O)C(C)C
B6: Compound 13 (peptide)
peptide: H-Y[Aib]EGTFTSDYSIYSDKKAQRAFVNWLLA[Aib]K-NH2
SMILES: CC[C@H](C)[C@H](NC(=O)[C@H](CO)NC(=O)[C@H](Cc1ccc(O)cc1)NC(=O)[C@H](CC(=O)O)NC(=O)[C@H](CO)NC(=O)[C@@H](NC(=O)[C@H](Cc1ccccc1)NC(=O)[C@@H](NC(=O)CNC(=O)[C@H](CCC(=O)O)NC(=O)C(C)(C)NC(=O)[C@@H](N)Cc1ccc(O)cc1)[C@@H](C)O)[C@@H](C)O)C(=O)N[C@@H](Cc1ccc(O)cc1)C(=O)N[C@@H](CO)C(=O)N[C@@H](CC(=O)O)C(=O)N[C@@H](CCCCN)C(=O)N[C@@H](CCCCN)C(=O)N[C@@H](C)C(=O)N[C@@H](CCC(N)=O)C(=O)N[C@@H](CCCNC(=N)N)C(=O)N[C@@H](C)C(=O)N[C@@H](Cc1ccccc1)C(=O)N[C@H](C(=O)N[C@@H](CC(N)=O)C(=O)N[C@@H](Cc1c[nH]c2ccccc12)C(=O)N[C@@H](CC(C)C)C(=O)N[C@@H](CC(C)C)C(=O)N[C@@H](C)C(=O)NC(C)(C)C(=O)N[C@@H](CCCCN)C(N)=O)C(C)C
B7: Compound 17 (peptide)
peptide: H-Y[Aib]EGTFTSDYSIYLDEKAQRAFVNWLLA[Aib]K-NH2
SMILES: CC[C@H](C)[C@H](NC(=O)[C@H](CO)NC(=O)[C@H](Cc1ccc(O)cc1)NC(=O)[C@H](CC(=O)O)NC(=O)[C@H](CO)NC(=O)[C@@H](NC(=O)[C@H](Cc1ccccc1)NC(=O)[C@@H](NC(=O)CNC(=O)[C@H](CCC(=O)O)NC(=O)C(C)(C)NC(=O)[C@@H](N)Cc1ccc(O)cc1)[C@@H](C)O)[C@@H](C)O)C(=O)N[C@@H](Cc1ccc(O)cc1)C(=O)N[C@@H](CC(C)C)C(=O)N[C@@H](CC(=O)O)C(=O)N[C@@H](CCC(=O)O)C(=O)N[C@@H](CCCCN)C(=O)N[C@@H](C)C(=O)N[C@@H](CCC(N)=O)C(=O)N[C@@H](CCCNC(=N)N)C(=O)N[C@@H](C)C(=O)N[C@@H](Cc1ccccc1)C(=O)N[C@H](C(=O)N[C@@H](CC(N)=O)C(=O)N[C@@H](Cc1c[nH]c2ccccc12)C(=O)N[C@@H](CC(C)C)C(=O)N[C@@H](CC(C)C)C(=O)N[C@@H](C)C(=O)NC(C)(C)C(=O)N[C@@H](CCCCN)C(N)=O)C(C)C

Experiments:
human GIP receptor = target: T1, human GIP receptor; test: cell-based or functional assay
human GLP-1 receptor = human GLP-1 receptor (human, UniProt P43220 24-463); test: cell-based or functional assay

| Binder | EC50, cAMP induction in HEK293 cells expressing human GIP R (human GIP receptor) [nM] | EC50, cAMP induction in HEK293 cells expressing human GLP-1 R (human GLP-1 receptor) [nM] |
| --- | --- | --- |
| B1 | 0.36 | 0.015 |
| B2 | 0.0068 | 0.015 |
| B3 | 0.06 | 0.01 |
| B4 | 0.036 | 0.0087 |
| B5 | 0.053 | 0.012 |
| B6 | 0.14 | 0.032 |
| B7 | 0.021 | 0.0074 |

Source: US20150299281A1 (ZEALAND PHARMA A S, published 2015)
